What was measured:
[1] = biological target: T1, human Keap1 Kelch domain (residues 322-624) (human, UniProt Q14145 322-624); test: ITC
full length human Keap1 = full length human Keap1 (human, UniProt Q14145 1-624); test: […]
[…] = biological target: the molecule itself; test: […]
[2] = biological target: T1, human Keap1 Kelch domain (residues …); test: native MS

T1 sequence (Q14145 322-624): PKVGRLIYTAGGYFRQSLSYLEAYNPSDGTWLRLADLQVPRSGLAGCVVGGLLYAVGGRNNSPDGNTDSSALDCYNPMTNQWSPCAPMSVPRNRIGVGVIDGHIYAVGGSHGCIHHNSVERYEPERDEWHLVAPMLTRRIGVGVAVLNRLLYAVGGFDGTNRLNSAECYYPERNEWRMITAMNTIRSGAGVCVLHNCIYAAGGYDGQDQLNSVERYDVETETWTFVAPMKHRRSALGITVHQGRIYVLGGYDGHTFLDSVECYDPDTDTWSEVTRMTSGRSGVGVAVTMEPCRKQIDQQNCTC
Chain of full length human Keap1 (Q14145 whole entry): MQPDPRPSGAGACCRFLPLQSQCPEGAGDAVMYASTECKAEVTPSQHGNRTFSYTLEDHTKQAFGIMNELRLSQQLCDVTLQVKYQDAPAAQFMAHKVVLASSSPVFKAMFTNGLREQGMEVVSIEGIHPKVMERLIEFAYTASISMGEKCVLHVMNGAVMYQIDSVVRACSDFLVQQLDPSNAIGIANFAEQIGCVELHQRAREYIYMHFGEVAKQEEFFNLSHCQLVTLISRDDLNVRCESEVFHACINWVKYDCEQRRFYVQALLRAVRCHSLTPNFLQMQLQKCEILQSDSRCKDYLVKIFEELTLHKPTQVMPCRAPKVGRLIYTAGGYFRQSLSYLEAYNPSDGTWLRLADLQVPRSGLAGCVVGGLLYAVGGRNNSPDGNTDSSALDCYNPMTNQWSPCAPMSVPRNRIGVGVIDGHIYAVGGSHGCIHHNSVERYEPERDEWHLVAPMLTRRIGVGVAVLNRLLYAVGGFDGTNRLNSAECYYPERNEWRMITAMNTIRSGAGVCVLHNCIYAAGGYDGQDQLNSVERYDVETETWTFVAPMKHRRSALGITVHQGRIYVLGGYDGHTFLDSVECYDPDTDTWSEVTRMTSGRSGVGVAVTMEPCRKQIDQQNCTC

Binder | Kd [1] | stoichiometry N (full length human Keap1) | stoichiometry N ([…]) | stoichiometry N [2]
MBP-tagged mVP24 N-terminal truncation (residues 22-253) (domain or fragment) DLNSTARWIKEPSVGGWTVKWGNFVFHIPNTGMTLLHHLKSNFVVPEWQQTRNLFSHLFKNPKSTIIEPFLALRILLGVALKDQELQQSLIPGFRSIVHMLSEWLLLEVTSAIHISPNLLGIYLTSDMFKILMAGVKNFFNKMFTLHVVNDHGKPSSIEIKLTGQQIIITRVNMGFLVEVRRIDIEPCCGETVLSESVVFGLVAEAVLREHSQMEKGQPLNLTQYMNSKIAI | 77 ± 4 nM |  |  | 
MBP-tagged Marburg virus viral protein 24, wild type, full length (natural protein) MAELSTRYNLPANVTENSINLDLNSTARWIKEPSVGGWTVKWGNFVFHIPNTGMTLLHHLKSNFVVPEWQQTRNLFSHLFKNPKSTIIEPFLALRILLGVALKDQELQQSLIPGFRSIVHMLSEWLLLEVTSAIHISPNLLGIYLTSDMFKILMAGVKNFFNKMFTLHVVNDHGKPSSIEIKLTGQQIIITRVNMGFLVEVRRIDIEPCCGETVLSESVVFGLVAEAVLREHSQMEKGQPLNLTQYMNSKIAI |  | 1 mVP24 per Keap1 (2:2) | 2 | 1

From article PMC5010500 (Journal of molecular biology, 2016)
